The labels stand for the following.
B1: L2-08 (antibody, V domains shown)
VH: EVQLVESGGGLEQPGGSLRLSCAASGFTFRDYAMTWVRQAPGKGLEWVSSISGSGGSTYYADSVKGRFTISRDNSKNTLYLQMNSLRAEDTAIYYCARGEYSSGWPSWFDPWGQGTLVTVSS
VL: DIQMTQSPSSLSASVGDRVTITCRASRTVGTFLNWYQQKPGKAPKALILGVSILEGGVPSRFSGSGSGTDFTLTISSLQPEDIATYYCQQSHDVPRTFGQGTKVEIK
B2: L2VL-D93S (antibody, V domains shown)
VH: EVQLVESGGGLEQPGGSLRLSCAGSGFTFRDYAMTWVRQAPGKGLEWVSSISGSGGNTYYADSVKGRFTISRDNSKNTLYLQMNSLRAEDTAIYYCARGEYSSGWPSWFDPWGQGTLVTVSS
VL: EIVLTQSPSSLSASVGDRVTISCRASRTVGTFLNWYQQRPGKPPQALILGVSILEGGVSSRFSGAGSGTEFSLTISSLQPEDIGTYYCQQSHSVPRTFGQGTKVDLR
B3: L2VH-S50A (antibody, V domains shown)
VH: EVQLVESGGGLEQPGGSLRLSCAGSGFTFRDYAMTWVRQAPGKGLEWVSAISGSGGNTYYADSVKGRFTISRDNSKNTLYLQMNSLRAEDTAIYYCARGEYSSGWPSWFDPWGQGTLVTVSS
VL: EIVLTQSPSSLSASVGDRVTISCRASRTVGTFLNWYQQRPGKPPQALILGVSILEGGVSSRFSGAGSGTEFSLTISSLQPEDIGTYYCQQSHDVPRTFGQGTKVDLR
B4: L2-04 (antibody, V domains shown)
VH: EVQLVESGGGLEQPGGSLRLSCAASGFTFRDYAMTWVRQAPGKGLEWVSSISGSGGSTYYADSVKGRFTISRDNSKNTLYLQMNSLRAEDTAIYYCARGEYSSGWPSWFDPWGQGTLVTVSS
VL: EIVLTQSPSSLSASVGDRVTISCRASRTVGTFLNWYQQRPGKPPQALILGVSILEGGVSSRFSGAGSGTEFSLTISSLQPEDIGTYYCQQSHDVPRTFGQGTKVDLR
B5: L2-05 (antibody, V domains shown)
VH: EVQLVESGGGLEQPGGSLRLSCAASGFTFRDYAMTWVRQAPGKGLEWVSAISGSGGSTYYADSVKGRFTISRDNSKNTLYLQMNSLRAEDTAIYYCARGEYSSGWPSWFDPWGQGTLVTVSS
VL: EIVLTQSPSSLSASVGDRVTISCRASRTVGTFLNWYQQRPGKPPQALILGVSILEGGVSSRFSGAGSGTEFSLTISSLQPEDIGTYYCQQSHDVPRTFGQGTKVDLR
B6: L2VL-G56S (antibody, V domains shown)
VH: EVQLVESGGGLEQPGGSLRLSCAGSGFTFRDYAMTWVRQAPGKGLEWVSSISGSGGNTYYADSVKGRFTISRDNSKNTLYLQMNSLRAEDTAIYYCARGEYSSGWPSWFDPWGQGTLVTVSS
VL: EIVLTQSPSSLSASVGDRVTISCRASRTVGTFLNWYQQRPGKPPQALILGVSILESGVSSRFSGAGSGTEFSLTISSLQPEDIGTYYCQQSHDVPRTFGQGTKVDLR
B7: L2-02 (antibody, V domains shown)
VH: EVQLVESGGGLEQPGGSLRLSCAGSGFTFRDYAMTWVRQAPGKGLEWVSSISGSGGNTYYADSVKGRFTISRDNSKNTLYLQMNSLRAEDTAIYYCARGEYSSGWPSWFDPWGQGTLVTVSS
VL: EIVLTQSPSSLSASVGDRVTISCRASRTVGTFLNWYQQRPGKPPQALILHTSILEGGVSSRFSGAGSGTEFSLTISSLQPEDIGTYYCQQSHDVPRTFGQGTKVDLR
B8: L2VH-R30S (antibody, V domains shown)
VH: EVQLVESGGGLEQPGGSLRLSCAGSGFTFSDYAMTWVRQAPGKGLEWVSSISGSGGNTYYADSVKGRFTISRDNSKNTLYLQMNSLRAEDTAIYYCARGEYSSGWPSWFDPWGQGTLVTVSS
VL: EIVLTQSPSSLSASVGDRVTISCRASRTVGTFLNWYQQRPGKPPQALILGVSILEGGVSSRFSGAGSGTEFSLTISSLQPEDIGTYYCQQSHDVPRTFGQGTKVDLR
B9: L2VH-D31S (antibody, V domains shown)
VH: EVQLVESGGGLEQPGGSLRLSCAGSGFTFRSYAMTWVRQAPGKGLEWVSSISGSGGNTYYADSVKGRFTISRDNSKNTLYLQMNSLRAEDTAIYYCARGEYSSGWPSWFDPWGQGTLVTVSS
VL: EIVLTQSPSSLSASVGDRVTISCRASRTVGTFLNWYQQRPGKPPQALILGVSILEGGVSSRFSGAGSGTEFSLTISSLQPEDIGTYYCQQSHDVPRTFGQGTKVDLR
B10: L2-09 (antibody, V domains shown)
VH: EVQLVESGGGLEQPGGSLRLSCAASGFTFRDYAMTWVRQAPGKGLEWVSSISGSGGSTYYADSVKGRFTISRDNSKNTLYLQMNSLRAEDTAIYYCARGEYSSGWPSWFDPWGQGTLVTVSS
VL: DIQMTQSPSSLSASVGDRVTITCRASRTVGTFLNWYQQKPGKAPKALILHTSILEGGVPSRFSGSGSGTDFTLTISSLQPEDIGTYYCQQSHDVPRTFGQGTKVEIK
B11: L2-03 (antibody, V domains shown)
VH: EVQLVESGGGLEQPGGSLRLSCAGSGFTFRDYAMTWVRQAPGKGLEWVSSISGSGGSTYYADSVKGRFTISRDNSKNTLYLQMNSLRAEDTAIYYCARGEYSSGWPSWFDPWGQGTLVTVSS
VL: EIVLTQSPSSLSASVGDRVTISCRASRTVGTFLNWYQQRPGKPPQALILGVSILEGGVSSRFSGAGSGTEFSLTISSLQPEDIGTYYCQQSHDVPRTFGQGTKVDLR
B12: L2VH-R98K (antibody, V domains shown)
VH: EVQLVESGGGLEQPGGSLRLSCAGSGFTFRDYAMTWVRQAPGKGLEWVSSISGSGGNTYYADSVKGRFTISRDNSKNTLYLQMNSLRAEDTAIYYCAKGEYSSGWPSWFDPWGQGTLVTVSS
VL: EIVLTQSPSSLSASVGDRVTISCRASRTVGTFLNWYQQRPGKPPQALILGVSILEGGVSSRFSGAGSGTEFSLTISSLQPEDIGTYYCQQSHDVPRTFGQGTKVDLR
B13: L2VH-T35S (antibody, V domains shown)
VH: EVQLVESGGGLEQPGGSLRLSCAGSGFTFRDYAMSWVRQAPGKGLEWVSSISGSGGNTYYADSVKGRFTISRDNSKNTLYLQMNSLRAEDTAIYYCARGEYSSGWPSWFDPWGQGTLVTVSS
VL: EIVLTQSPSSLSASVGDRVTISCRASRTVGTFLNWYQQRPGKPPQALILGVSILEGGVSSRFSGAGSGTEFSLTISSLQPEDIGTYYCQQSHDVPRTFGQGTKVDLR
B14: L2VL-I53S (antibody, V domains shown)
VH: EVQLVESGGGLEQPGGSLRLSCAGSGFTFRDYAMTWVRQAPGKGLEWVSSISGSGGNTYYADSVKGRFTISRDNSKNTLYLQMNSLRAEDTAIYYCARGEYSSGWPSWFDPWGQGTLVTVSS
VL: EIVLTQSPSSLSASVGDRVTISCRASRTVGTFLNWYQQRPGKPPQALILGVSSLEGGVSSRFSGAGSGTEFSLTISSLQPEDIGTYYCQQSHDVPRTFGQGTKVDLR
B15: L2-06 (antibody, V domains shown)
VH: EVQLVESGGGLEQPGGSLRLSCAASGFTFRDYAMTWVRQAPGKGLEWVSSISGSGGSTYYADSVKGRFTISRDNSKNTLYLQMNSLRAEDTAIYYCARGEYSSGWPSWFDPWGQGTLVTVSS
VL: DIQMTQSPSSLSASVGDRVTITCRASRTVGTFLNWYQQKPGKAPKALILGVSILEGGVPSRFSGSGSGTDFTLTISSLQLEDFATYYCQQSHDVPRTFGQGTKVEIK
B16: L2-07 (antibody, V domains shown)
VH: EVQLVESGGGLEQPGGSLRLSCAASGFTFRDYAMTWVRQAPGKGLEWVSSISGSGGSTYYADSVKGRFTISRDNSKNTLYLQMNSLRAEDTAIYYCARGEYSSGWPSWFDPWGQGTLVTVSS
VL: DIQMTQSPSSLSASVGDRVTITCRASRTVGTFLNWYQQKPGKAPKALILGVSILEGGVPSRFSGSGSGTDFTLTISSLQPEDIGTYYCQQSHDVPRTFGQGTKVEIK

The assay deals with T1, recombinant human IGSF8 extracellular domain tagged by a human Fc region (IGSF8-hFc) (human, UniProt Q969P0 28-579, biotin label in Examples 17, 18 and 28 (site not given)).
T1 construct: also called IGSF8-Fc fusion protein; IGSF8-hFc-biotin; not shown: human Fc region
T1 sequence: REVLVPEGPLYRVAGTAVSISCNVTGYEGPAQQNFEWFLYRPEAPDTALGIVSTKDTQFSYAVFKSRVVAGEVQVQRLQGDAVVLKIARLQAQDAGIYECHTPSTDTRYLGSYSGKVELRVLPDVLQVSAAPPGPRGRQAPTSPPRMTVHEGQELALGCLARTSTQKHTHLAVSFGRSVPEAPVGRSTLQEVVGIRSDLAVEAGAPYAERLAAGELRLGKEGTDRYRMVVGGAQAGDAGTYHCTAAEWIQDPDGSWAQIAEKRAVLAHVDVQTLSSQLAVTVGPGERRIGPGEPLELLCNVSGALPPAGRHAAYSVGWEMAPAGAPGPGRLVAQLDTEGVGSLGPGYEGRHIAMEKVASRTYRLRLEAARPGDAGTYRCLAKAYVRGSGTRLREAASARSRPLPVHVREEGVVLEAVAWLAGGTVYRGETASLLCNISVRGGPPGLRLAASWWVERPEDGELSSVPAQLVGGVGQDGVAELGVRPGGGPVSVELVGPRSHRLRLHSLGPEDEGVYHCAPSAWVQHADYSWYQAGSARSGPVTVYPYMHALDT
Put plainly: SPR, Ab captured. The protocol:
The binding affinities of the L1 and L2 antibodies to IGSF8 recombinant protein were determined by surface plasmon resonance (SPR). Briefly, anti-human Fab antibody was imobilized on acarboxyl-derivatized SPR chip surface, and the antibodies were captured on the resulting surface at 5 μg/ml for 30 seconds.
(In general: SPR reads the build-up and loss of mass on a sensor chip optically.)
As to B1, the Kd (in general, the concentration at which binding is half-saturated) stood at 0.869 nM; the dissociation rate constant (koff) – broadly, the first-order rate constant of dissociation – is 0.000112 s⁻¹; the on-rate (kon) (as a rule, the second-order rate constant of association) was 129000 M⁻¹ s⁻¹.
Regarding B2, the Kd came to 68 nM, the koff is 0.00202 s⁻¹ and the on-rate (kon) is 29700 M⁻¹ s⁻¹.
The corresponding values for B3 are 23.7 nM, 0.000486 s⁻¹ and 20500 M⁻¹ s⁻¹.
For B4 the same measures were 2.98 nM, 0.000142 s⁻¹ and 47600 M⁻¹ s⁻¹.
For B5 the same measures were 2.63 nM, 0.000112 s⁻¹ and 42700 M⁻¹ s⁻¹.
Regarding B6, the Kd was found to be 29.1 nM, the koff came to 0.00311 s⁻¹ and the kon came out at 107000 M⁻¹ s⁻¹.
For B7 the same measures were 4.85 nM, 0.000131 s⁻¹ and 27100 M⁻¹ s⁻¹.
The corresponding values for B8 are 146 nM, 0.00165 s⁻¹ and 11400 M⁻¹ s⁻¹.
On to B9, for which the Kd is 465 nM, the off-rate constant (koff) was determined as 0.00567 s⁻¹ and the kon amounted to 12200 M⁻¹ s⁻¹.
B10: the Kd came out at 0.475 nM, the koff was found to be 7.15e-05 s⁻¹ and the kon was found to be 151000 M⁻¹ s⁻¹.
As for B11, the Kd worked out at 3.27 nM, the off-rate constant (koff) worked out at 0.000465 s⁻¹ and the on-rate (kon) turned out to be 142000 M⁻¹ s⁻¹.
As to B12, the Kd is 48.7 nM, the koff was found to be 0.00248 s⁻¹ and the kon worked out at 51000 M⁻¹ s⁻¹.
As to B13, the Kd was determined as 22.8 nM, the koff was 0.00139 s⁻¹ and the kon worked out at 61100 M⁻¹ s⁻¹.
Consider B14, for which the Kd stood at 1280 nM, the off-rate constant (koff) is 0.00173 s⁻¹ and the kon is 1350 M⁻¹ s⁻¹.
Take B15: the Kd was found to be 5.45 nM, the koff was found to be 0.000249 s⁻¹ and the kon amounted to 45700 M⁻¹ s⁻¹.
For B16 the same measures were 1.16 nM, 0.000129 s⁻¹ and 111000 M⁻¹ s⁻¹.

Values taken from patent US20230303695A1 (SHANGHAI XBH BIOTECHNOLOGY, published 2023).
